This note sets out measurements from paper PMC3207831, “Determinants of the Differential Antizyme-Binding Affinity of Ornithine Decarboxylase” (PLoS ONE, 2011).

The target of series [1] is ODC_7M (ODC_Q119H/A124R/N125D/Q129D/E136V/V137D/M140E) (human) (UniProt P11926).
Series [2] concerns the target human ornithine decarboxylase, wild type (human) (UniProt P11926).
Series [3] concerns the target ODC_7M (ODC_Q119H/A124R/N125D/Q129D/E136V/V137D/M140E) (human) (UniProt P11926). Nature of the series: AUC; sedimentation velocity, 20°C, 42,000 rpm, absorbance at 280 nm; ODC fixed at 0.3 mg/mL, AZ 0.03, 0.06 or 0.09 mg/mL; global fit to the AB hetero-association model (SEDPHAT).
The target of series [4] is ODC_7M(-Q119H) (ODC_A124R/N125D/Q129D/E136V/V137D/M140E) (human) (UniProt P11926). The description is as above.
The target of a further series is ODC_7M(-V137D) (human) (UniProt P11926). Described as above.
In series [5] the target is ODC_Q119H/V137D/M140E (human) (UniProt P11926). The description is as above.
For series [6], the target named is human ornithine decarboxylase, wild type (human) (UniProt P11926). Described as above.
Series [7] deals with the molecule itself. Nature of the series: AUC; sedimentation velocity, 20°C, 42,000 rpm, continuous size distribution (SEDFIT); ODC in the absence of AZ.

For the molecule “antizyme (from UniProt P54368 1-228) (natural protein)”, the ODC enzyme activity left with increasing AZ (ODC 20 μg/mL, AZ 0 to 28 μg/mL); value at a molar ratio of 1:1 AZ:ODC in series [1] turned out to be 90%. For the same molecule, the ODC enzyme activity left with increasing AZ (ODC 20 μg/mL, AZ 0 to 28 μg/mL); value at a molar ratio of 2:1 monomeric AZ to dimeric ODC in series [2] amounted to 30%. The Kd turned out to be 12400 nM in series [3]; 1420 nM in series [4]; 1200 nM with ODC_7M(-V137D) (human); 9950 nM in series [5]; 220 nM in series [6].

B1: human ornithine decarboxylase, wild type (enzyme, UniProt P11926 1-461, looked up)
chain: MNNFGNEEFDCHFLDEGFTAKDILDQKINEVSSSDDKDAFYVADLGDILKKHLRWLKALPRVTPFYAVKCNDSKAIVKTLAATGTGFDCASKTEIQLVQSLGVPPERIIYANPCKQVSQIKYAANNGVQMMTFDSEVELMKVARAHPKAKLVLRIATDDSKAVCRLSVKFGATLRTSRLLLERAKELNIDVVGVSFHVGSGCTDPETFVQAISDARCVFDMGAEVGFSMYLLDIGGGFPGSEDVKLKFEEITGVINPALDKYFPSDSGVRIIAEPGRYYVASAFTLAVNIIAKKIVLKEQTGSDDEDESSEQTFMYYVNDGVYGSFNCILYDHAHVKPLLQKRPKPDEKYYSSSIWGPTCDGLDRIVERCDLPEMHVGDWMLFENMGAYTVAAASTFNGFQRPTIYYVMSGPAWQLMQQFQNPDFPPEVEEQDASTLPVSCAWESGMKRHRAACASASINV
notes: human ornithine decarboxylase (ODC, EC 4.1.1.17); Homodimer in the absence of AZ by sedimentation velocity; also called hODC; source: E. coli JM109 (pQE30), purified (Ni-NTA)
For B1, the “stoichiometry N” value in series [7] worked out at 2.
